molecular target: soluble, recombinant SUDV GP (Boniface variant), residues 33-649 (Sudan ebolavirus (Boniface variant), UniProt Q66814)

Row | Binder | binding result
1 | 31C7 (antibody, V domains shown) VH: EVQLVESGGGLVQPGGSLRLSCAASGFAFNYYDMFWVRQAPGKGLEWVAYINPGGGNTYYADSVKGRFTISADTSKNTAYLQMNSLRAEDTAVYYCARQLYGNSFLDYWGQGTLVTV VL: DIQMTQSPSSLSASVGDRVTITCKASQDVTTAVAWYQQKPGKAPKLLIYWASSRYPGVPSRFSGSGSGTDFTLTISSLQPEDFATYYCQQHYSTPLTFGQGTKVEI | binds
2 | 51B6 (antibody, V domains shown) VH: EVQLVESGGGLVQPGGSLRLSCAASGFAFNYYDLYWVRQAPGKGLEWVAYINPGGGNTYYPDSVKGRFTISADTSKNTAYLQMNSLRAEDTAVYYCARQLYGNSFFDYWGQGTLVTV VL: DIQMTQSPSSLSASVGDRVTITCKASQDVTTAVAWYQQKPGKAPKLLIYWASTRHTGVPSRFSGSGSGTDFTLTISSLQPEDFATYYCQQHYSTPLTFGQGTKVEI | binds
3 | 35B5 (antibody, V domains shown) VH: EVQLVESGGGLVQPGGSLRLSCAASGFAFNYYDMFWVRQAPGKGLEWVAYINSGGGNTYYPDSVKGRFTISADTSKNTAYLQMNSLRAEDTAVYYCARQLYGNSFFDYWGQGTLVTV VL: DIQMTQSPSSLSASVGDRVTITCKASQDVTTAVAWYQQKPGKAPKLLIYWASTRHTGVPSRFSGSGSGTDFTLTISSLQPEDFATYYCQQHYSTPLTFGQGTKVEI | binds
4 | 34F5 (antibody, V domains shown) VH: EVQLVESGGGLVQPGGSLRLSCAASGFAFNYYDMFWVRQAPGKGLEWVAYINSGGGNTYYPDSVKGRFTISADTSKNTAYLQMNSLRAEDTAVYYCARQLYGNSFFDYWGQGTLVTV VL: DIQMTQSPSSLSASVGDRVTITCKASQDVTTAVAWYQQKPGKAPKLLIYWASARHRGVPSRFSGSGSGTDFTLTISSLQPEDFATYYCQQHYSTPLTFGQGTKVEI | binds
